This note sets out measurements from article PMC3175422.

The assay concerns the target calreticulin (CRT) (UniProt P27797). Description: SPR. (In general: In SPR one partner is held on a chip, and binding of the other changes the refractive index at the surface.)
UniProt P27797, sequence (P27797 18-417): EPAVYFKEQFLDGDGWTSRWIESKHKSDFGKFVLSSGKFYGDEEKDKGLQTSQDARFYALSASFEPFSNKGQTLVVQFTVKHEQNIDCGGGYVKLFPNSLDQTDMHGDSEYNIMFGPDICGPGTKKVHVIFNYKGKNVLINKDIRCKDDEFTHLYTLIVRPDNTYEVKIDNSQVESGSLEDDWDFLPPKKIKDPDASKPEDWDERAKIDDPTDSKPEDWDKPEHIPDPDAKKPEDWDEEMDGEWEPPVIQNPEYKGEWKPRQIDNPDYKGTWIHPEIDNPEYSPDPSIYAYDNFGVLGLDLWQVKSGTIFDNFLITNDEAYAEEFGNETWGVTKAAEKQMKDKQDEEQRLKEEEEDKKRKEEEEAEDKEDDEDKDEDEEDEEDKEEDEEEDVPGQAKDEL

For “Gal1Glc1Man9GlcNAc2-RNase (2) (from UniProt P61823 27-150) (enzyme)”, the Kd (usually the concentration at which binding is half-saturated) was found to be 110 nM; the off-rate constant (koff) (as a rule, the first-order rate constant of dissociation) is 0.00199 s⁻¹; the kon (usually the rate constant with which the complex forms) worked out at 18100 M⁻¹ s⁻¹.
“Glc1Man9GlcNAc2-RNase (1) (from UniProt P61823 27-150) (enzyme)” displayed a Kd of 38 nM, a dissociation rate constant (koff) of 0.000482 s⁻¹ and a kon of 12800 M⁻¹ s⁻¹.
